Experimental data taken from patent US20120172293A1 (Takeda / Millennium, published 2012).
Non-standard residues stand in square brackets, D forms with d. tBuAla = CC(C)(C)C[C@H](N)C(=O)O; dHyp = O=C(O)[C@H]1C[C@H](O)CN1; Cha = N[C@@H](CC1CCCCC1)C(=O)O; Iva = CC[C@](C)(N)C(=O)O; Aib = CC(C)(N)C(=O)O

B1: Ac-[D-Pro24, Cha27,28,36, Iva30, Aib31]-PYY(23-36) (peptide)
peptide: Ac-S[dP]RH[Cha][Cha]N[Iva][Aib]TRQR[Cha]-NH2
SMILES: CC[C@](C)(NC(=O)[C@H](CC(N)=O)NC(=O)[C@H](CC1CCCCC1)NC(=O)[C@H](CC1CCCCC1)NC(=O)[C@H](Cc1c[nH]cn1)NC(=O)[C@H](CCCNC(=N)N)NC(=O)[C@H]1CCCN1C(=O)[C@H](CO)NC(C)=O)C(=O)NC(C)(C)C(=O)N[C@H](C(=O)N[C@@H](CCCNC(=N)N)C(=O)N[C@@H](CCC(N)=O)C(=O)N[C@@H](CCCNC(=N)N)C(=O)N[C@@H](CC1CCCCC1)C(N)=O)[C@@H](C)O
B2: Ac-[D-Hyp24, Cha27,36, Leu(Me)28, Lys30, Aib31]-PYY(23-36) (peptide)
peptide: Ac-S[dHyp]RH[Cha][tBuAla]NK[Aib]TRQR[Cha]-NH2
SMILES: CC(=O)N[C@@H](CO)C(=O)N1C[C@@H](O)C[C@@H]1C(=O)N[C@@H](CCCNC(=N)N)C(=O)N[C@@H](Cc1c[nH]cn1)C(=O)N[C@@H](CC1CCCCC1)C(=O)N[C@@H](CC(C)(C)C)C(=O)N[C@@H](CC(N)=O)C(=O)N[C@@H](CCCCN)C(=O)NC(C)(C)C(=O)N[C@H](C(=O)N[C@@H](CCCNC(=N)N)C(=O)N[C@@H](CCC(N)=O)C(=O)N[C@@H](CCCNC(=N)N)C(=O)N[C@@H](CC1CCCCC1)C(N)=O)[C@@H](C)O

Experiments:
[1] = target: human Y2 receptor (human) (UniProt P49146); test: cell-based or functional assay
[2] = target: human Y2 receptor (human) (UniProt P49146); test: RBA: displacement of [125I]-PYY from hY2R/CHO membranes

Sequence of human Y2 receptor (human) (P49146 whole entry): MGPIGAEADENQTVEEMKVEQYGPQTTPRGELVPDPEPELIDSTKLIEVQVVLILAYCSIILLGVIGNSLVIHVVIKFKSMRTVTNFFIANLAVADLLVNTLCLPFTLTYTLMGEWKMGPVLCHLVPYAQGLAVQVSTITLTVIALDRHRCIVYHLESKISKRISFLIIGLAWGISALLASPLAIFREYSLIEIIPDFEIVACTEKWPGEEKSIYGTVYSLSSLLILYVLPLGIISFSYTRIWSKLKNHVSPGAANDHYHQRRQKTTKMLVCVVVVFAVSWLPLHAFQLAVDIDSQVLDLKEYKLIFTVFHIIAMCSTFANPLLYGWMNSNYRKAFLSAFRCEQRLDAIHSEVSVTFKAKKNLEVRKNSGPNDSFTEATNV

| GBA EC50 Ratio ([35S]GTPγS binding) (EC50 compound/EC50 PYY(3-36)) [1] | IC50 Ratio (IC50 compound/IC50 PYY(3-36)) [2] | Molecule |
| --- | --- | --- |
| 1.7 | 1.1 | Ac-[D-Pro24, Pya(4)26, Cha27,36, Aib28,31, Lys(Me2)30]-PYY(23-36) (peptide) |
| 1.2 | 1.2 | (Carboxymethyl)carbamoyl-[D-Pro24, Pya(4)26, Cha27,36, Aib28,31, Lys30]-PYY(23-36) (peptide) |
| 0.8 | 0.72 | Ac-[D-Pro24, Pya(4)26, Cha27,36, Aib28,31, Ala(4-pip)30]-PYY(23-36) (peptide) |
| 1.7 | 1.9 | 4-Imidazolecarbonyl-[Aib24,28,31, Iva25, Pya(4)26, Cha27,36, Lys30]-PYY(23-36) (peptide) |
| 0.86 | 1.1 | Ac-[D-Hyp24, Pya(4)26, Cha27,36, Aib28,31, Lys30]-PYY(23-36) (peptide) |
| 0.59 | 0.52 | Ac-[D-Pro24, Pya(4)26, Cha27, Aib28,31, Lys30, Phe(2,6-Me2)36]-PYY(23-36) (peptide) |
| 3.9 | 10 | Ac-[D-Pro24, Pya(4)26, Phe(4F)27, Aib28,31, Lys30, Cha36]-PYY(23-36) (peptide) |
| 1.4 | 1.5 | Ac-[D-Hyp24, Iva25, Pya(4)26, Cha27,36, Aib28,31, Lys30]-PYY(23-36) (peptide) |
| 1.3 | 1 | Ac-[D-Pro24, Pya(4)26, Cha27,36, Aib28,31, Lys(Hexyl)30]-PYY(23-36) (peptide) |
| 1.3 | 0.99 | 4-Imidazolecarbonyl-[D-Hyp24, Iva25,28, Pya(4)26, Cha27,36, Lys30, Aib31]-PYY(23-36) (peptide) |
| 1.6 | 0.7 | Ac-[D-Pro24, Pya(4)26, Cha27,36, D-Iva28,31, Lys30]-PYY(23-36) (peptide) |
| 1.7 | 0.57 | (3-Carboxypropyl)carbamoyl-[D-Hyp24, Iva25, Pya(4)26, Cha27,36, Leu(Me)28, Lys30, Aib31]-PYY(23-36) (peptide) |
| 20 | 43 | B1 |
| 0.76 | 0.38 | B2 |
